Reference: US20100190699A1 (INDIANA UNIVERSITY RESEARCH AND TECHNOLOGY, published 2010)

Tests used:
Test in all cases: cell-based or functional assay
glucagon receptor [1] = biological target: T1, glucagon receptor (UniProt P47871 26-477, limits assumed)
GLP-1 receptor = GLP-1 receptor (UniProt P43220 24-463, limits assumed)
glucagon receptor [2] = biological target: T1, glucagon receptor; remark: listed apart in the source

T1 sequence (P47871 26-477 limits assumed): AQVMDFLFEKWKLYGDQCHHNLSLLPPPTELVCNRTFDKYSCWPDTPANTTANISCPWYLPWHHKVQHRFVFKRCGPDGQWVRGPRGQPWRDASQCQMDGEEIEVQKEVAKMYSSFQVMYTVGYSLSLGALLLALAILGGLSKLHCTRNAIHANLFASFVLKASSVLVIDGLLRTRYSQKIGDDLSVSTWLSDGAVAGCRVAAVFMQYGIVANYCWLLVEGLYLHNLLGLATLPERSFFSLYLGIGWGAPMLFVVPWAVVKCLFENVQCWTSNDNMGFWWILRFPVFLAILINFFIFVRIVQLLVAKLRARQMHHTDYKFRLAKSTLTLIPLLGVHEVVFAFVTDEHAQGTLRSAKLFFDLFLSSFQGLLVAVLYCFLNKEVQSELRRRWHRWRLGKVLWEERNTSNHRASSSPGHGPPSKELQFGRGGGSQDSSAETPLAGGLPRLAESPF

HSQGTFTSDYSRYLDSRRAQDFVQWLMNK [Glucagon R12 K29] was tested, and the “cAMP Induction, EC50 (luciferase reporter)” value (glucagon receptor [1]) was 0.81 nM and the “cAMP Induction, EC50 (luciferase reporter)” value (GLP-1 receptor) was 0.41 nM.

For HSQGTFTSDYSKYLDSRRAQDFVQWLMNKK [glucagon analog K29, K30], the “Observed EC50 (cAMP induction), Test 1” value (glucagon receptor [2]) was 0.89 nM.

For HSQGTFTSDYSKYLDSRRAQDFVQWLMNTKK [glucagon analog K30, K31], the “Observed EC50 (cAMP induction), Test 2” value (glucagon receptor [2]) was 0.12 nM.

For HSQGTFTSDYSKYLDSRRAQDFVQWLMNTE [glucagon analog E30], the “Observed EC50 (cAMP induction), Test 2” value (glucagon receptor [2]) was 0.04 nM.

HSQGTFTSDYSKYLDSRRAQDFVQWLMDE [glucagon analog D28, E29] was tested, and the “Observed EC50 (cAMP induction), Test 3” value (glucagon receptor [2]) was 0.03 nM.

In the case of HSQGTFTSDYSKYLDSRRAQDFVQWLMDTE [glucagon analog D28, E30], the “Observed EC50 (cAMP induction), Test 3” value (glucagon receptor [2]) is reported as 0.05 nM.

For HSQGTFTSDYSKYLESRRAQDFVQWLMDT [glucagon analog D28, E15], the “Observed EC50 (cAMP induction), Test 3” value (glucagon receptor [2]) was 0.15 nM.
